{"source": "patent US20080242590A1", "about": "“New Method 706” (ASTRAZENECA AB, priority 2007, published 2008)", "key": {"[1]": {"experiment": "Pharmacokinetics of Fc-Nep and commercial neprilysin, single i.v. dose (Example 20)", "type": "in vivo", "details": "mice, single i.v. dose 1 mg/kg", "experimental": "The Fc-Nep fusion protein was developed to improve the pharmacokinetic entities of neprilysin with the specific aims to reduce clearance and improve half-life. To test this we have administrated a single i.v. dose of either 1 mg/kg commercial neprilysin or 1 alternatively 5 mg/kg in-house produced Fc-Nep to mice. At set times after dosing blood samples were drawn from the tail vein or by heart puncture at termination. Upon sampling into tubes containing EDTA the aliquots were put on ice. Plasma was prepared by centrifugation within 15 minutes of sampling (typically 1500 g at 4° C. for 10 min) and immediately frozen. Plasma concentrations of Fc-Nep and neprilysin were determined via immunoassays using either anti-Nep for commercial neprilysin or anti-human IgG for Fc-Nep as capture antibodies while both substances were detected via an anti-Nep antibody. Pharmacokinetic parameters are calculated using a software package (WinNonlin, Pharsight Corporation, USA) and in this example experiment the calculated half-life had increased from about 5 minutes for Nep to about 20 hours for Fc-Nep."}, "[2]": {"system": "amyloid β peptide 1-40 (Aβ40)", "experiment": "Ex-vivo degradation of Aβ40 in guinea pig plasma", "type": "biochemical", "details": "5 μg/ml, 4 hours, 37° C.", "experimental": "Degradation of amyloid β peptide 1-40 (Aβ40) and amyloid β peptide 1-42 (Aβ42) by neprilysin was investigated using heparinized plasma from male Dunkin Hartley guinea pigs, weighing 250-300 g (HBLidkoping ka). Blood was withdrawn from anaesthetized guinea pigs by heart puncture. The blood were collected into prechilled heparin-plasma tubes and centrifuged for 10 min at 4° C. at 3000×g within 20 minutes of sampling. Plasma samples were transferred to pre-chilled polypropylene tubes and immediately frozen on dry ice and stored at −70° C. prior to use. The experiments were performed on a pool of plasma from seven guinea pigs. His-Fc-Nep (6 μg/ml or 208 μg/ml) or 5 μg/ml recombinant human Neprilysin (R&D systems) with corresponding vehicles (50 mM Tris-HCl, 150 mM NaCl pH 7.5 or 25 mM Tris-HCl, 0.1 M NaCl pH 8.0) were incubated with a pool of plasma in presence or absence of 10 μM phosphoramidon (BIOMOL) at 37° C. for 0 and 4 h. A final concentration of 4.7 mM EDTA was added into the tubes before the amount of Aβ40 and Aβ42 was analysed using a commercial ELISA kit obtained from Biosource (Aβ1-40) or Innogenetics (Aβ1-42)."}, "[3]": {"system": "amyloid β 1-40 peptide", "experiment": "Degradation of amyloid β 1-40 peptide by Fc-Neprilysin and Neprilysin in buffer", "type": "biochemical", "details": "enzyme 2.4 μg/ml, Aβ 1-40 300 nM, 2.5 hours at 37° C., buffer", "experimental": "The assay is measuring the remaining amyloid β 1-40 peptide (Bachem) concentration following its incubation in the presence of Neprilysin (R&D Systems) or Fc-Neprilysin with or without Neprilysin inhibitor. 100 μl of reaction mixture containing amyloid β 1-40 peptide (final concentrations, 300, 30 or 3 nM) and/or Neprilysin (2.4 μg/ml), and/or Fc-Neprilysin construct (2.4 μg/ml), and/or Phosphoramidone (10 μM) was incubated in a round bottom 96-well polypropylene plate at 37° C. for 2.5 hours. Following incubation, 10 μl of reaction mixture was transferred into Thermo-Fast© 96-well PCR plate (Abgene, UK) containing 10 μl of Standard Diluent (Gyros AB). Amyloid β 1-40 concentration was determined using Gyrolab Workstation LIF system. Biotinylated anti-amyloid β antibodies (6E10; final concentration 50 μg/ml; Signet) were used as capturing antibodies and polyclonal anti-human amyloid β antibodies (44-348; Biosource) labeled with Alexa Fluor 647 dye (Molecular probes) were used as detection antibodies. Amyloid β 1-40 peptide concentration measurement performed according to the manufacturers protocol using Gyrolab Bioaffy™ Software Package Version 1.8 (Gyros AB). Amyloid β 1-40 peptide degradation by Neprilysin was calculated as a percentage of Amyloid β 1-40 peptide left after incubation in the presence of Neprilysin compared to the amyloid β 1-40 peptide concentration in the absence of Neprilysin."}, "[4]": {"system": "amyloid β peptide 1-40 (Aβ40)", "experiment": "Degradation of Aβ40 in human plasma (Example 18)", "type": "biochemical", "details": "5 μg/ml, 4 hours, 37° C.", "experimental": "Blood from eight individuals (5 females and 3 males) were collected into pre-chilled heparin-plasma tubes at the healthcare centre (AstraZeneca) at two different time points. Plasma was prepared by centrifugation for 20 min at 4° C. at 2500×g within 30 minutes of sampling. Plasma samples were transferred to pre-chilled polypropylene tubes and immediately frozen and stored at −70° C. prior to use. His-Fc-Nep (6 μg/ml) or 5 μg/ml recombinant human Neprilysin (R&D systems) with corresponding vehicles (50 mM Tris-HCl, 150 mM NaCl pH 7.5 or 25 mM Tris-HCl, 0.1 M NaCl pH 8.0) in presence or absence of 10 μM phosphoramidon was incubated with a pool of plasma at 37° C. for 0 and 4 h. A final concentration of 4.7 mM EDTA was added into the tubes before the amount of Aβ40 was analysed using a commercial ELISA kit obtained from Biosource. His-Fc-Nep (6 μg/ml) and commercial human recombinant neprilysin (5 μg/ml) degraded Aβ40 with 33% and 70%, respectively, compared to vehicle after 4 hours incubation at 37° C. The Aβ40 levels were unaffected after addition of 10 μM phosphoramidon (FIG. 4)."}, "[5]": {"experiment": "Pharmacokinetics of Fc-Nep and in-house produced Neprilysin, single i.v. dose (Example 27)", "type": "in vivo", "details": "mice, single i.v. dose 10 or 50 nmol enzyme/kg", "experimental": "The Fc-Nep fusion protein was developed to improve the pharmacokinetic entities of neprilysin with the specific aims to reduce clearance and improve half-life. To test this we have administrated a single i.v. dose of 10 or 50 nmol enzyme/kg body weight neprilysin (Nep) or Fc-Nep (1 and 5 mg/kg) to mice. At set times the dose blood samples were drawn from the tail vein or by heart puncture at termination. Upon sampling into tubes containing EDTA the aliquots were put on ice. Plasma was prepared by centrifugation within 15 minutes of sampling (typically 1500 g at 4° C. for 10 min) and immediately frozen. Plasma concentrations of Nep and Fc-Nep were determined via immunoassays using either anti-Nep for Nep or anti-human IgG for Fc-Nep as capture antibodies while both substances were detected via an anti-Nep antibody. Pharmacokinetic parameters are calculated using a software package (WinNonlin, Pharsight Corporation, USA) and in this example experiment the calculated half-life had increased from about 1 day for Nep to about 2.5 weeks for Fc-Nep."}}}
{"molecule": "Recombinant human Neprilysin: commercially available Recombinant Human Neprilysin (R&D Systems), positive control (protein) YDDGICKSSDCIKSAARLIQNMDATTEPCTDFFKYACGGWLKRNVIPETSSRYGNFDILRDELEVVLKDVLQEPKTEDIVAVQKAKALYRSCINESAIDSRGGEPLLKLLPDIYGWPVATENWEQKYGASWTAEKAIAQLNSKYGKKVLINLFVGTDDKNSVNHVIHIDQPRLGLPSRDYYECTGIYKEACTAYVDFMISVARLIRQEERLPIDENQLALEMNKVMELEKEIANATAKPEDRNDPMLLYNKMTLAQIQNNFSLEINGKPFSWLNFTNEIMSTVNISITNEEDVVVYAPEYLTKLKPILTKYSARDLQNLMSWRFIMDLVSSLSRTYKESRNAFRKALYGTTSETATWRRCANYVNGNMENAVGRLYVEAAFAGESKHVVEDLIAQIREVFIQTLDDLTWMDAETKKRAEEKALAIKERIGYPDDIVSNDNKLNNEYLELNYKEDEYFENIIQNLKFSQSKQLKKLREKVDKDEWISGAAVVNAFYSSGRNQIVFPAGILQPPFFSAQQSNSLNYGGIGMVIGHEITHGFDDNGRNFNKDGDLVDWWTQQSASNFKEQSQCMVYQYGNFSWDLAGGQHLNGINTLGENIADNGGLGQAYRAYQNYIKKNGEEKLLPGLDLNHKQLFFLNFAQVWCGTYRPEYAVNSIKTDVHSPGNFRIIGTLQNSAEFSEAFHCRKNSYMNPEKKCRVW", "values": [{"measurement": "calculated half-life", "setting": "[1]", "result": "about 5 minutes"}, {"measurement": "Aβ40 degraded compared to vehicle", "setting": "[2]", "result": 49, "unit": "%"}, {"measurement": "Amyloid β 1-40 peptide degraded", "setting": "[3]", "result": 64, "unit": "%"}, {"measurement": "Aβ40 degraded compared to vehicle", "setting": "[4]", "result": 70, "unit": "%"}]}
{"molecule": "Nep: in-house produced Neprilysin (extra-cellular domain only), without Fc (protein, UniProt P08473 52-750, looked up, extracellular domain, in-house produced Neprilysin (extra-cellular domain only), without Fc) extracellular domain: YDDGICKSSDCIKSAARLIQNMDATTEPCTDFFKYACGGWLKRNVIPETSSRYGNFDILRDELEVVLKDVLQEPKTEDIVAVQKAKALYRSCINESAIDSRGGEPLLKLLPDIYGWPVATENWEQKYGASWTAEKAIAQLNSKYGKKVLINLFVGTDDKNSVNHVIHIDQPRLGLPSRDYYECTGIYKEACTAYVDFMISVARLIRQEERLPIDENQLALEMNKVMELEKEIANATAKPEDRNDPMLLYNKMTLAQIQNNFSLEINGKPFSWLNFTNEIMSTVNISITNEEDVVVYAPEYLTKLKPILTKYSARDLQNLMSWRFIMDLVSSLSRTYKESRNAFRKALYGTTSETATWRRCANYVNGNMENAVGRLYVEAAFAGESKHVVEDLIAQIREVFIQTLDDLTWMDAETKKRAEEKALAIKERIGYPDDIVSNDNKLNNEYLELNYKEDEYFENIIQNLKFSQSKQLKKLREKVDKDEWISGAAVVNAFYSSGRNQIVFPAGILQPPFFSAQQSNSLNYGGIGMVIGHEITHGFDDNGRNFNKDGDLVDWWTQQSASNFKEQSQCMVYQYGNFSWDLAGGQHLNGINTLGENIADNGGLGQAYRAYQNYIKKNGEEKLLPGLDLNHKQLFFLNFAQVWCGTYRPEYAVNSIKTDVHSPGNFRIIGTLQNSAEFSEAFHCRKNSYMNPEKKCRVW", "values": [{"measurement": "calculated half-life", "setting": "[5]", "result": "about 1 day"}]}
